Laboratory results: patent US20250304658A1
“And” between values parts separate entries of the source, which are not always exact repeats. Equal values may be shown once. Read-outs that look alike come from different tables or passages of the source.

Experiments:
[1] = target: BK virus VP1 protein, genotype I (BK virus) (UniProt P03088); assay: cell-based or functional assay
[2] = target: BK virus VP1 protein, genotype I (BK virus) (UniProt P03088); assay: cell-based or functional assay; remark: listed apart in the source

B1: 7A4 (antibody, V domains shown)
VH: QVQLVESGGDLVKPGGSLRLSCVASGFTFSDYYMNWIRLPPGKGLEWISYIDSSAGAIYYADSVKGRFTVSRDDAKNSLFLHMNSLRADDTAVYYCVRERRDGHKIFDYWGPGTLVTVSS
VL: DIVMTQSPDSLAVSLGERATINCKSSQNILYSSNNKNYLAWYQQKAGQPPKLLIFWSSIRESGVPDRFSGSGSGTDFTLTISSLQAEDVAVYYCQQYYSSPYNFGRGTTLEIK
EC50, pseudovirus neutralization [1]: 9.1 pM

B2: 2H1 (antibody, V domains shown)
VH: QVQLVESGGDLVKPGGSLRLSCVASGFTFSDYYMNWIRLPPGKGLEWISYIDSSAGAIYYADSVKGRFTVSRDDAKNSLFLHMNSLRADDTAVYYCARERRDGHKIFDCWGPGTLVTVSS
VL: DIVMTQSPDSLAVSLGERATINCKSSQNILYSSNNKNYLAWYQQKTGQPPKLLIFWSSTRESGVPDRFSGSGSGTDFTLTISSLQAEDVAVYYCQQYYSSPYNFGRGTTLEIK
EC50, pseudovirus neutralization [1]: 20.2 pM and 41.8 pM

B3: 1E2 (antibody, V domains shown)
VH: QVQLVESGGDLVKPGGSLRLSCVASGFTFSDYYMNWIRLPPGKGLEWVSYIDSSAGAIYYADSVRGRFTVSRDDAKNSLFLHMNSLRADDTAVYYCARERRDGHKIFDCWGPGTLVTVSS
VL: DIVMTQSPDSLAVSLGERATINCKSSQNILYSSNNKNYLAWYQQKAGQPPKLLIFWSSTRESGVPDRFSGSGSGTDFTLTINSLQAEDVAVYYCQQYYSSPYNFGRGTTLEIK
EC50, pseudovirus neutralization [1]: 59 pM

B4: 9B4 (antibody, V domains shown)
VH: QVQLVESGGDLVKPGGSLRLSCVASGFTFSDYYMNWIRLPPGKGLEWISYIDSSAGAIYYADSVKGRFTVSRDDAKNSLFLHMNSLRADDTAVYYCARERREGHKIFDFWGPGTLVTVSS
VL: DIVMTQSPDSLALSLGERATINCKSSQNILYSSNNKNYLACYQQKAGQPPKLLIFWSSTRESGVPDRFSGSGSGTDFTLTISSLQAEDVAVYYCQQYYSSPYNFGRGTTLEIK
EC50, pseudovirus neutralization [1]: 72.5 pM

B5: 5A8 (antibody, V domains shown)
VH: QVQLVESGGDLVKPGGSLRLSCVASGFTFSDYYMNWIRLPPGRGLEWISYIDSSAGAIYYADSVKGRFTVSRDDAKKSLFLYMNSLRADDTAVYYCARERRDGHKIFDYWGPGTLVTVSS
VL: DIVMTQSPDSLAVSLGERATINCKSSQNILYSSNNKNYLAWYQQKAGQPPKLLIFWSSTRESGVPDRFSGSGSGTDFTLTISSLQAEDVAVYYCHQYYSSPYNFGRGTTLEIK
EC50, pseudovirus neutralization [1]: 20.1 pM

B6: 1H10 (antibody, V domains shown)
VH: QVHLVESGGDLVKPGGSLRLSCVASGFTFSDYYMNWIRMPPGKGLEWISYIDSSAGAIYYADSVKGRFTVSRDDAKNSLFLHMNNLRADDTAVYYCARERRDGHKIFDCWGPGTLVTVSS
VL: DIVMTQSPDSLAVSLGERATINCKSSQNILYSSNNKNYLAWYQQKAGQPPKLLIFWSSTRESGVPDRFSGSGSGTDFTLTISSLQAEDVAVYYCQQYYSSPYNFGRGTTLEIK
EC50, pseudovirus neutralization [1]: 68.4 pM

B7: 8D10 (antibody, V domains shown)
VH: QVHLVESGGDLVKPGGSLRLSCVASGFTFSDYYMNWIRLPPGKGLEWISYIDSSAGAIYYADSVKGRFTVSRDDAKNSMFLHMNSLRADDTAVYYCARERRDGHKIFDYWGPGTLVTVSS
VL: DIVMTQSPDSLAVSLGERATINCKSSQNILYSSNNKNYLAWYQQKAGQPPKLLIFWSSTRESGVPDRFSGSGSGTDFTLTISSLQAEDVAVYYCQQYYSSPYNFGRGTTLEIK
EC50, pseudovirus neutralization [1]: 62.9 pM

B8: 4F7 (antibody, V domains shown)
VH: QVQLVESGGDLVKPGGSLRLSCVASGFTFSDYYMNWIRLPPGKGLEWISYIDSSAGAIYYADSVKGRFTVSRDDAKNSLFLHMNNLRADDTAVYYCARERRDGHKIFDCWGPGTLVTVSS
VL: DIVMTQSPDSLAVSLGERATINCKSSQNILYSSNNKNYLAWYQQKAGQPPKLLIFWSSTRESGVPDRFSGSGSGTDFTLTISSLQAEDVAVYYCQQYYSSPYNFGRGTTLEIK
EC50, pseudovirus neutralization [1]: 32.5 pM

B9: 8A11 (antibody, V domains shown)
VH: QVQLVESGGDLVKPGGSLRLSCVASGFTFSDYYMNWIRLPPGKGLEWISYIDSSAGATYYADSVKGRFTVSRDDAKNSLFLHMNSLRAEDTAVYYCARERRSGHKIFDCWGPGTLVTVSS
VL: DIVMTQSPDSLAVSLGERATINCKSSQNILYSSNNKNYLAWYQQKAGQPPKLLIFWSSTRESGVPDRFSGSGSGTDFTLTISSLQAEDVAVYYCQQYYSSPYNFGRGTTLEIK
EC50, pseudovirus neutralization [1]: 108 pM

B10: 2F7 (antibody, V domains shown)
VH: QVQLVESGGGLVKPGGSLRLSCVASGFTFSDYYMNWIRLPPGRGLQWISYIDSSAGAIYYADSVKGRFTVSRDDAKNSLYLQMNSLRADDTAVYYCARERRDGHKIFDWWGQGTLVTVSS
VL: DIVMTQSPDSLAVSLGERATINCKSSQNILYTSNNKNYLGWYQQKAGQPPKLLIYWSSTRNSGVPDRFSGSGSGTDFTLTISSLQAEDVAVYYCHQYYSSPYTFGQGTNLEIK
EC50, pseudovirus neutralization [1]: 52.5 pM

B11: 15C10 (antibody, V domains shown)
VH: EVQLLESGGGLVQPGGSLRLSCAASGFTFSSFAMSWVRQAPGKGLEWVSGISASGGTTNYADSVKGRFTISRDNSKNTLYLQMSSLRAEDTAEYYCAKDRFLEWVEGFDPWGQGILVTVSP
VL: DIQMTQSPSSLSASVGDRVTITCRASQSIGRFLIWYQQKPGKAPKLLLYATSSLQSGVPARFTGSGSGTDFTLTIGSLQPEDFATYYCQQSYITPLTFGGGTKVEIK
EC50, pseudovirus neutralization [1]: 9.4 pM
EC50, pseudovirus neutralization [2]: 0.1 pM

B12: 14F5 (antibody, V domains shown)
VH: EVQLLESGGGLVQPGGSLRLSCAVSGFTFSSFAMSWVRQAPGKGLEWVSGISASGGTTNYADSVKGRFTISRDNSKNTLYLQMSSLRAEDTAEYYCAKDRFLEWVEGFDPWGQGILVTVSP
VL: DIQMTQSPSSLSASVGDRVTITCRASQSIGRFLIWYQQKPGKAPKLLLYATSSLQSGVPARFTGSGSGTDFTLTIGSLQPEDFATYYCQQSYITPLTFGGGTKVEIK
EC50, pseudovirus neutralization [1]: 10.1 pM

B13: 2B9 (antibody, V domains shown)
VH: EVQLLESGGGLAQPGKSLRLSCAASGFTFSGFAMSWVRQAPGKGLEWVSGISGSGDITYYADSVKGRFTISRDNSKSTLYLQMNSLGAEDTAVYYCAKDPYNWNHGVYGMDVWGQGTTVTVSS
VL: DIQMTQSPSSLSASVGDRVTITCRASQSISSYLNWYQQKPGKAPKFLIYGASSLQSGVPSRFSGSGSGTDFTLTISSLQPEDFAAYYCQQSFNAPLTFGGGTKVEIK
EC50, pseudovirus neutralization [1]: 32.2 pM
EC50, pseudovirus neutralization (mAb mixed with irrelevant isotype matched mAb M2) [1]: 2.77 pM
EC50, pseudovirus neutralization [2]: 4.2 pM

B14: 9G9 (antibody, V domains shown)
VH: EVQLLESGGGLVQPGGSLRLSCAASGFTFHNYAMSWVRQAPGKGLEWVSGISGSGGTAYYADSVKGRFTISRDNSKNTLYLQMNSLRADDTALYYCAKDRFLEWVEGFDSWGQGTLVTVSS
VL: DIQMTQSPSSLSASVGDRVTITCRASQSIGSFLIWYQQKPGKAPKLLIYAASSLQSGVPSRFSGSGSGTDFTLIISSLQPEDFATYYCQQSYNTPLTFGGGTKVEIK
EC50, pseudovirus neutralization [1]: 4.7 pM
EC50, pseudovirus neutralization (mAb mixed with irrelevant isotype matched mAb M2) [2]: 2.76 pM

B15: 7H8 (antibody, V domains shown)
VH: EVQLLESGGGLVQPGGSLRLSCAASGFAFHTYDMTWVRQAPGKGLEWVSGVVGSGINTYYADSVKGRFTISRDNSKSTLYLQMNSLRAEDTAVYYCAKDSSSWFSLHYWGQGTLVTVSS
VL: DIQMTQSPSTLSASVGDRVTITCRASQSISNWLAWYQQKPGKAPKLLIYKASSLESGVPSRFSGSGSGTDFTLTISSLQPDDFASYYCQQYRSYAYTFGQGTKLEIT
EC50, pseudovirus neutralization [1]: 59.6 pM

B16: 6H12 (antibody, V domains shown)
VH: EVQLVESGGGLVQPGGSLRLSCAASGFTFSSYEMNWVRQAPGKGLEWVSYISSGGSSIKYADSVRGRFAFSRDNAENSVHLQMNSLRAEDTAVYYCARVGGSYYYSYAMDVWGQGTAVTVSS
VL: DIQLTQSPSFLSASVGDRVTITCWASQDISSYLAWYQQKPGKAPKLLIYAASTLQSGVPSRFTGSGSGTEFTLTISSLQPEDFATYYCQQPHNSPFSFGPGTKVDVK
EC50, pseudovirus neutralization [1]: 3.9 pM
EC50, pseudovirus neutralization (mAb mixed with irrelevant isotype matched mAb M2) [2]: 0.96 pM

B17: 11D12 (antibody, V domains shown)
VH: EVQLVESGGGLVQPGGSLRLSCAASGFTFSSYEMNWVRQAPGKGLEWVSYISSGGSSIKYADSVRGRFTFSRDNAENSVFLQMNSLRGEDTAVYYCARVGGSYYYSYAMDVWGQGTAVTVSS
VL: DIQLTQSPSFLSASVGDRVTITCWASQDISSYLAWYQQKPGKAPKLLIYAASTLQSGVPSRFSGSGSGTEFTLTISSLQPEDFATYYCQQPNNYPFSFGPGTKVDVK
EC50, pseudovirus neutralization [1]: 10.9 pM
